Results reported in patent publication US20230057622A1.
Like-named read-outs stand apart in the source and are kept apart here.

Experiments:
[1] = target: receptor on MCF-7 cells; assay: cell-based or functional assay
[2] = target: receptor on MCF-7 cells; assay: cell-based or functional assay; remark: listed apart in the source

EC50 [1]: 1.65 nM
EC50 [2]: 0.924 nM
Substance: recombinant NRG polypeptide with an amino acid sequence of SEQ ID NO: 1 (from UniProt Q02297-11 122-190) (ligand)
